Measured values reported in the supplement of paper PMC12042874.
± gives the uncertainty stated by the source.

Experiment: amyloid nucleation score (Sup35N fusion, yeast selection) (log enrichment); library NNK3; higher = more nucleation; inactive = no reads after selection
Procedure, shortened: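 In psi-negative yeast, Sup35N fusions carrying peptides of 20 random codons were induced with 100 μM copper sulfate for 24 hours. The cells then grew 7 days at 30°C on medium lacking adenine and uracil, and plasmid inserts from input and output were Illumina-sequenced, excluding sequences with under 100 input reads. Nucleation score is the DiMSum log enrichment of output over input reads, centred on the mode score of non-aggregating sequences.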
For DLGYVLLMTHSRIMMCLHHY, the amyloid nucleation score was “inactive”. With DLILWFPL the amyloid nucleation score was “inactive”. With DLLDHGFEASSKDLEFRDHS the amyloid nucleation score was “inactive”. For DLNDGWGWKRLTFQSVRCGE, the amyloid nucleation score was “inactive”. For DLNMGYKFLISKYSWPVYPM, the amyloid nucleation score was “inactive”. DLPKVHGKFFYSLPMVVNTN showed an amyloid nucleation score of -0.162 ± 0.98. With DLQLRNWCLWVSWWN the amyloid nucleation score was “inactive”. In the case of DLSSSGCKLSRIFHGHNWSR, the amyloid nucleation score is reported as “inactive”. For DLWDTCCLII, the amyloid nucleation score was “inactive”. In the case of DMCIHWDEGNAWWYKSMASV, the amyloid nucleation score is reported as “inactive”. With DMGKKSSLGNKWVIREAHMG the amyloid nucleation score was “inactive”. In the case of DMIESSKRFFGSARIVLPEM, the amyloid nucleation score is reported as “inactive”. In the case of DMIKCGLSPDRVFIWYWPNK, the amyloid nucleation score is reported as “inactive”. DMISFKMLQYCWCSSCVFSH gave an amyloid nucleation score of 2.18 ± 0.088. In the case of DMLAYADMLHNFFNSSVHFW, the amyloid nucleation score is reported as “inactive”. DMNSACCVWHSVFYSEFYVI showed an amyloid nucleation score of 2.19 ± 0.069. DMTGGVCHFWSCCVSCNK showed an amyloid nucleation score of 2.96 ± 0.072. For DMWYRYYMSLGSCKRGSVWK, the amyloid nucleation score was “inactive”. For DNFVEDFLTMASGNIRC, the amyloid nucleation score was “inactive”. For DNLGLFSVVKRSPMLSVTKE, the amyloid nucleation score was “inactive”. DNQVICISCYGLIGLKGGRQ gave an amyloid nucleation score of 1.5 ± 0.11. With DNRYVY the amyloid nucleation score was “inactive”. In the case of DPLILPIVVDRIVADDCYCQ, the amyloid nucleation score is reported as “inactive”. In the case of DPPHWVDFSRFR, the amyloid nucleation score is reported as “inactive”. With DPTIVIGDQPIRLRPSVCQM the amyloid nucleation score was “inactive”. DPVMTACNALMTSVS showed an amyloid nucleation score of -0.319 ± 1.3. In the case of DQECRA, the amyloid nucleation score is reported as “inactive”. With DQGDRSFCSNLRLGYGVRAW the amyloid nucleation score was “inactive”. For DQGHRNYINSPRNFLSDKSC, the amyloid nucleation score was “inactive”. With DRHSTYCLAS the amyloid nucleation score was “inactive”. With DRHVSQFSVWDW the amyloid nucleation score was “inactive”. For DRKNCRRSHVWVMRMGNWYC, the amyloid nucleation score was “inactive”. In the case of DRLPGANICKRRFDMCERKV, the amyloid nucleation score is reported as “inactive”. With DRNLDVPCLDVLRSMLDVCN the amyloid nucleation score was -0.464 ± 0.96. For DRVITSNFFSSVWTQT, the amyloid nucleation score was “inactive”. Substance DRYFLVDAKMFTGRTYLILG has an amyloid nucleation score of -0.416 ± 0.88. With DRYLCVVKCSVVTGIDQMSM the amyloid nucleation score was “inactive”. In the case of DSFNCDFNMCHDYVM, the amyloid nucleation score is reported as “inactive”. With DSIAVCGRITPSLNLQFDMQ the amyloid nucleation score was “inactive”. In the case of DSKGIFYFFGLVSLY, the amyloid nucleation score is reported as “inactive”. For DSKMLCCCCWPVRN, the amyloid nucleation score was 1.42 ± 0.12. With DSLIVCTVPHGLDVVSTRRV the amyloid nucleation score was “inactive”. In the case of DSLKIR, the amyloid nucleation score is reported as “inactive”. For DSLSDLLYSFKFKG, the amyloid nucleation score was “inactive”. For DSLTDVMTWELWDIYHVKHE, the amyloid nucleation score was “inactive”. In the case of DSPRGV, the amyloid nucleation score is reported as “inactive”. In the case of DSTEVRYQNPMTTLRGVVFW, the amyloid nucleation score is reported as “inactive”. In the case of DTFACCPRWNLCGENTLPYI, the amyloid nucleation score is reported as 2.33 ± 0.06. For DTGLAESQGMN, the amyloid nucleation score was “inactive”. In the case of DTLLRKFWVIIVIGTALGSM, the amyloid nucleation score is reported as “inactive”. With DTWRMFWPLVVLNCADGAPG the amyloid nucleation score was “inactive”. With DVFHSCLAQFILYTP the amyloid nucleation score was “inactive”. For DVGTCSLLNGHKYFFRFNVV, the amyloid nucleation score was “inactive”. For DVMSEFLFKYWVVNQQCFTR, the amyloid nucleation score was “inactive”. In the case of DVSYYERGSSVHYTHSD, the amyloid nucleation score is reported as “inactive”. For DWRAVLLGITSFA, the amyloid nucleation score was “inactive”. With DWTGNMGDNHSTRVFRRKRD the amyloid nucleation score was “inactive”. In the case of DWYIVRMARCG, the amyloid nucleation score is reported as 0.984 ± 0.12. Substance DYIEGLECVFRDPARIFLWG has an amyloid nucleation score of -0.226 ± 1.1. With DYNILQSRMSYRAYMCSLHV the amyloid nucleation score was “inactive”. With DYTPGGCRPTTNCLS the amyloid nucleation score was “inactive”. With DYYTVCQAWIYIGFAILKW the amyloid nucleation score was “inactive”. For EAEGNINTRGTHRCLYGSFK, the amyloid nucleation score was “inactive”. With EAYEAQD the amyloid nucleation score was “inactive”.
